Legend:
[1] = target: mouse DCLK1-CAR (on transduced T cells); assay: flow cytometry of CAR-transduced T cells stained with biotinylated DCLK1 protein (FL2-H), gate 'stained'; controls: T cells 3.19% (small print 3.18%), mock 3.17%
[2] = target: human DCLK1-CAR (on transduced T cells); assay: as above

- % stained [1]: 11.6%
- % stained [2]: 2.73%
Substance: Biotin-labeled DCLK1 (from UniProt O15075 1-740)

Reference: patent publication US20260159607A1
